Experimental data reported in patent US20250049953A1, “TREATMENT AND METHOD FOR INHIBITING LATE NA CURRENT” (THE TRUSTEES OF COLUMBIA UNIVERSITY IN THE CITY OF NEW YORK, priority 2022, published 2025).

Target: T1, NaV1.5 ΔKPQ mutant (Homo sapiens, UniProt Q14524, DEL1505-1507)
T1 construct: expressed in transfected cells; host or cells: HEK293 (ATCC CRL1573)
Assay: Multichannel recordings of late Na current, NaV1.5 ΔKPQ mutant in HEK293 cells
Assay type: cell-based
Description: The human NaV1.5 channel corresponds to clone M77235.1 (GenBank) and is subcloned into pGW 1 vector with HindIII and SaII. To facilitate construction of channelopathic mutations in the channel carboxy-terminus, we introduced silent mutations into NaV1.5 to introduce an NruI cutting site near the channel carboxy-terminus (5329-gtggccacg-5337 into 5329-gtCgcGacg-5337). Subsequently, we used overlap-extension PCR and ligated the PCR product into NaV1.5/pGW1 using NruI and XbaI restriction sites (mutations: E1784K, S1904L, IQ/AA, and Q1909R). For generating the ΔKPQ and IFM/IQM mutations, we used overlap-extension PCR and ligated in NaV1.5/pGW1 following restriction digest using KpnI and XbaI site. For generation of NaV1.5 truncations, we PCR amplified relevant segments using a forward primer upstream of the KpnI site and a reverse primer that truncated at the appropriate location (Δ1810 and Δ1885) and included an XbaI site and ligated into NaV1.5/pW1 vector. For LILA/WICW mutations, we used overlap extension and used restriction site AgeI and NheI for subsequent ligation. All segments subjected to PCR amplification were verified by sequencing. For generating human FHF2 splice-variants, we synthesized gene fragments and ligated into pcDNA3 using BamHI/EcoRI restriction sites. Human FHF1A and FHF1B were subcloned into ECFP-N3 vector, FHF2 splice variants and FHF3 were subcloned into pcDNA3. […]

## FixR-cpp: FixR fused to HIV-1 TAT transduction domain, YGRKKRRQRRRAAAIASSLIRQKRQARESNSERVSASKRRSSPSKG (SEQ ID NO: 2)
2-hour incubation with 10 μM FixR-cpp
  change in INa,L: diminished INa,L

## FixR: minimal 39-amino-acid FHF1A amino-terminal effector domain, MAAAIASSLIRQKRQARESNSDRVSASKRRSSPSKDGRS (SEQ ID NO: 4), expressed as peptide
co-expression with NaV1.5 ΔKPQ in HEK293 cells
  change in INa,L: inhibits INa,L
